T1: ADAMTS13 in normal human plasma (human, UniProt Q76LX8 75-1427)
T1 sequence (looked up): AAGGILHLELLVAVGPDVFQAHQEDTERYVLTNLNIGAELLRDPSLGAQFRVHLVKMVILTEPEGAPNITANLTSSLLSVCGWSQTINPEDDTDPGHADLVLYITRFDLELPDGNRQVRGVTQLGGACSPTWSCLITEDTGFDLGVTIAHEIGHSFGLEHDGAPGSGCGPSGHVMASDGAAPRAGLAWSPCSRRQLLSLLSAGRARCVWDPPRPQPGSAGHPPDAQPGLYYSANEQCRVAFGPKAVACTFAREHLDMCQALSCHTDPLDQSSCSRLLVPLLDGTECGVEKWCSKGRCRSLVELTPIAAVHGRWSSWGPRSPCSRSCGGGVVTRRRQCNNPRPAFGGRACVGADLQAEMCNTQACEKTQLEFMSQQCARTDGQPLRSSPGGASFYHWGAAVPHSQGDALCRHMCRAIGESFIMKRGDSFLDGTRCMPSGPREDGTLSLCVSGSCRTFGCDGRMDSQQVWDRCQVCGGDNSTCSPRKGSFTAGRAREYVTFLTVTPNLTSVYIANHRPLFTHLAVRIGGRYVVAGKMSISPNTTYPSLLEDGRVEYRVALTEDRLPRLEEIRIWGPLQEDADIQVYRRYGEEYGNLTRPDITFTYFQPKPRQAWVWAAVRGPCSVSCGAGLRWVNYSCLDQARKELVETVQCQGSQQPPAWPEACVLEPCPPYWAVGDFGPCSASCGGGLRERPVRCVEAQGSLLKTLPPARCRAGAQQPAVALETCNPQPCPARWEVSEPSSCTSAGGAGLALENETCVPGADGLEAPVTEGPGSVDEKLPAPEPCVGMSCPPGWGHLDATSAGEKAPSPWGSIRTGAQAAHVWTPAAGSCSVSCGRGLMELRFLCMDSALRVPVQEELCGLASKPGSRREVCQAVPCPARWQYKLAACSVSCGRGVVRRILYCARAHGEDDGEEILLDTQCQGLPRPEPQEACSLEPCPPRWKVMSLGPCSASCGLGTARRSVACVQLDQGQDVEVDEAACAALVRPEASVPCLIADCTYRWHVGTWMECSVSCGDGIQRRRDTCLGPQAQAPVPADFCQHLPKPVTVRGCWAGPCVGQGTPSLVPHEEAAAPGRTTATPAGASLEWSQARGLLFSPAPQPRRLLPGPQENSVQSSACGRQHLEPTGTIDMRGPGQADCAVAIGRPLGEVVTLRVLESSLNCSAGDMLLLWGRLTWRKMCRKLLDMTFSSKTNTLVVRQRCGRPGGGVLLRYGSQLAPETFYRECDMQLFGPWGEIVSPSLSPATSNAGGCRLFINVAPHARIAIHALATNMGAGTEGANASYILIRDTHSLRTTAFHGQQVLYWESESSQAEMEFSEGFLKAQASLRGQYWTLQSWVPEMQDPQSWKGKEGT


Legend:
[1] = molecular target: von Willebrand factor (VWF) multimer in human plasma, P04275
[2] = molecular target: T1, ADAMTS13 in normal human plasma; assay: cell-based or functional assay

Binder | ID50 concentration on the VWF cleaving activity of ADAMTS13 (ADAMTS13 activity remaining in human plasma, ELISA) [2] | VWF multimer analysis (SDS-agarose gel, Western blot) of human plasma under high shear stress [1]
ADAMTS13 in normal human plasma (protein) AAGGILHLELLVAVGPDVFQAHQEDTERYVLTNLNIGAELLRDPSLGAQFRVHLVKMVILTEPEGAPNITANLTSSLLSVCGWSQTINPEDDTDPGHADLVLYITRFDLELPDGNRQVRGVTQLGGACSPTWSCLITEDTGFDLGVTIAHEIGHSFGLEHDGAPGSGCGPSGHVMASDGAAPRAGLAWSPCSRRQLLSLLSAGRARCVWDPPRPQPGSAGHPPDAQPGLYYSANEQCRVAFGPKAVACTFAREHLDMCQALSCHTDPLDQSSCSRLLVPLLDGTECGVEKWCSKGRCRSLVELTPIAAVHGRWSSWGPRSPCSRSCGGGVVTRRRQCNNPRPAFGGRACVGADLQAEMCNTQACEKTQLEFMSQQCARTDGQPLRSSPGGASFYHWGAAVPHSQGDALCRHMCRAIGESFIMKRGDSFLDGTRCMPSGPREDGTLSLCVSGSCRTFGCDGRMDSQQVWDRCQVCGGDNSTCSPRKGSFTAGRAREYVTFLTVTPNLTSVYIANHRPLFTHLAVRIGGRYVVAGKMSISPNTTYPSLLEDGRVEYRVALTEDRLPRLEEIRIWGPLQEDADIQVYRRYGEEYGNLTRPDITFTYFQPKPRQAWVWAAVRGPCSVSCGAGLRWVNYSCLDQARKELVETVQCQGSQQPPAWPEACVLEPCPPYWAVGDFGPCSASCGGGLRERPVRCVEAQGSLLKTLPPARCRAGAQQPAVALETCNPQPCPARWEVSEPSSCTSAGGAGLALENETCVPGADGLEAPVTEGPGSVDEKLPAPEPCVGMSCPPGWGHLDATSAGEKAPSPWGSIRTGAQAAHVWTPAAGSCSVSCGRGLMELRFLCMDSALRVPVQEELCGLASKPGSRREVCQAVPCPARWQYKLAACSVSCGRGVVRRILYCARAHGEDDGEEILLDTQCQGLPRPEPQEACSLEPCPPRWKVMSLGPCSASCGLGTARRSVACVQLDQGQDVEVDEAACAALVRPEASVPCLIADCTYRWHVGTWMECSVSCGDGIQRRRDTCLGPQAQAPVPADFCQHLPKPVTVRGCWAGPCVGQGTPSLVPHEEAAAPGRTTATPAGASLEWSQARGLLFSPAPQPRRLLPGPQENSVQSSACGRQHLEPTGTIDMRGPGQADCAVAIGRPLGEVVTLRVLESSLNCSAGDMLLLWGRLTWRKMCRKLLDMTFSSKTNTLVVRQRCGRPGGGVLLRYGSQLAPETFYRECDMQLFGPWGEIVSPSLSPATSNAGGCRLFINVAPHARIAIHALATNMGAGTEGANASYILIRDTHSLRTTAFHGQQVLYWESESSQAEMEFSEGFLKAQASLRGQYWTLQSWVPEMQDPQSWKGKEGT |  | more deficiency in high-molecular-weight VWF multimer and stronger cleavage of VWF were shown with increase in shear stress of 108 dyne/cm^2, 216 dyne/cm^2, and 324 dyne/cm^2
9A7 antibody (antibody, mouse IgG2b, kappa, V domains shown) VH: QVQLKESGPGLVAPSQSLSITCTVSGFSLTGYGIHWVRQPPGKGLEWLGVIWADGTTNSNSALMSRLSISKDNSKSQVFLKMTSLQTDDTAMYHCARAGGSQPFDYWGQGTTLTVSS VL: DIKMTQSPSSMYASLGERVTITCKASQDINSYLSWFQQKPGKSPKTLIFRANRLVDGVPSRFSGSGSGQDYSLTISSLEYEDMEIYYCLQYDEFPWTFGGGTKLEIKR | ~19.5 µg/mL | 

Further lines, with some results ahead:

ID50 concentration on the VWF cleaving activity of ADAMTS13 (ADAMTS13 activity remaining in human plasma, ELISA) [2] | Binder | VWF multimer analysis (SDS-agarose gel, Western blot) of human plasma under high shear stress [1]
~7.28 µg/mL | 1G2 antibody (antibody, mouse IgG1, kappa, V domains shown) VH: QVQLRESGPGLVAPSQSLSITCTVSGFSLPRYGIHWVRQPPGKGLEWLGVIWAGGSTDYDSALMSRLSISKDTSKSQVFLKMSSLQTDDTAIYYCARAGGSQPFDYWGQGTTLTVSS VL: DIKMTQSPSSMYASLGERVTITCKASRDINTYLSWFQQKPGKSPKTLISRANRLVDGVPSRFSGSGSGQDYSLSISSLEYEDMGFYYCLQYDEFPWTFGGGTKLVIKR | 
~25.4 µg/mL | 12D10 antibody (antibody, mouse IgG1, kappa, V domains shown) VH: QVQLKESGPGLVAPSQSLSITCTVSGFSLTRYGVHWVRQPPGKGLEWLGVIWAGGSTNYKSALMSRLNITKDNSKSQVFLKMNGLQTDDTAIYFCARAGGSSSFDYWGQGTTLTVSS VL: DIKMTQSPSSMNASLGERVTITCKASQDINTYLGWFQQKPGKSPKTLIYRANRLVDGVPSRFSGSGSGQGYSLTISSLEYEDMGIYYCLQYDEFPWTFGGGTKLEIKR | 
